Data from patent publication US20220177560A1.

What was measured:
[1] = biological target: HU-3pE-beta-Amyloid (human); assay: SPR; HU-3pE-beta-Amyloid 0.6 to 4.5 nM
[2] = biological target: cynomolgus FcRn (cynomolgus) (UniProt Q8SPV9); assay: FcRn binding affinity; method not described; average of 5-6 replicates
[3] = biological target: human FcRn (human) (UniProt P55899); assay: as above

cynomolgus FcRn (cynomolgus), sequence (Q8SPV9 24-297 limits assumed, chain 1 of 2): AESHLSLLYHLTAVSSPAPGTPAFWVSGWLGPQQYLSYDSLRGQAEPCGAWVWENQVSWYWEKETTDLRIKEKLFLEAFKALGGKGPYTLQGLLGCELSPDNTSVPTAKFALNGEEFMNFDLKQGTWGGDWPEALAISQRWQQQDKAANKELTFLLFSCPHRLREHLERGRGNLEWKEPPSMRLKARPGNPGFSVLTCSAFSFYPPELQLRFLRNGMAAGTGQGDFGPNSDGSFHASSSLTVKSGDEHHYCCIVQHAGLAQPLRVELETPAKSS
cynomolgus FcRn (cynomolgus), sequence (Q8SPW0 21-119 limits assumed, chain 2 of 2, further chain): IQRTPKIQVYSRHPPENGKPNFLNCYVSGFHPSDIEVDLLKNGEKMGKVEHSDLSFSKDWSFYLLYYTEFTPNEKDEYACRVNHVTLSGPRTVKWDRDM

| Kd [1] [nM] | koff [1] [s⁻¹] | kon [1] [M⁻¹ s⁻¹] | Kd [2] [nM] | Kd [3] [nM] | Substance |
| --- | --- | --- | --- | --- | --- |
| 0.0379 | 0.000156 | 4.11e+06 | – | – | Control mAb (antibody) |
| – | – | – | 430 | 443 | IgG1 control (antibody) |
